Laboratory results reported in paper PMC5313200.

Target: mitochondrial antiviral signaling protein (MAVS), from pCMV-FLAG-MAVS (UniProt Q8VCF0)
Test: co-immunoprecipitation with quantitative western blot
Settings: 293T cells co-transfected with MAVS and viperin mutant; at least 3 independent experiments; parent: est. 100; read off a plot

Substance	percent of parent [% WT]
viperin (Virus Inhibitory Protein, Endoplasmic Reticulum-associated, interferon-inducible), wild type, from pcDNA3.1-viperin (from UniProt Q8CBB9) C84A	93
viperin (Virus Inhibitory Protein, Endoplasmic Reticulum-associated, interferon-inducible), wild type, from pcDNA3.1-viperin (from UniProt Q8CBB9) F90A	160
viperin (Virus Inhibitory Protein, Endoplasmic Reticulum-associated, interferon-inducible), wild type, from pcDNA3.1-viperin (from UniProt Q8CBB9) G117A	20
viperin (Virus Inhibitory Protein, Endoplasmic Reticulum-associated, interferon-inducible), wild type, from pcDNA3.1-viperin (from UniProt Q8CBB9) H79A	140
viperin (Virus Inhibitory Protein, Endoplasmic Reticulum-associated, interferon-inducible), wild type, from pcDNA3.1-viperin (from UniProt Q8CBB9) H93A	90
viperin (Virus Inhibitory Protein, Endoplasmic Reticulum-associated, interferon-inducible), wild type, from pcDNA3.1-viperin (from UniProt Q8CBB9) K96A	81
viperin (Virus Inhibitory Protein, Endoplasmic Reticulum-associated, interferon-inducible), wild type, from pcDNA3.1-viperin (from UniProt Q8CBB9) K120A	12
viperin (Virus Inhibitory Protein, Endoplasmic Reticulum-associated, interferon-inducible), wild type, from pcDNA3.1-viperin (from UniProt Q8CBB9) N77A	83
viperin (Virus Inhibitory Protein, Endoplasmic Reticulum-associated, interferon-inducible), wild type, from pcDNA3.1-viperin (from UniProt Q8CBB9) N85A	100
viperin (Virus Inhibitory Protein, Endoplasmic Reticulum-associated, interferon-inducible), wild type, from pcDNA3.1-viperin (from UniProt Q8CBB9) P73A	220
viperin (Virus Inhibitory Protein, Endoplasmic Reticulum-associated, interferon-inducible), wild type, from pcDNA3.1-viperin (from UniProt Q8CBB9) R82A	66
viperin (Virus Inhibitory Protein, Endoplasmic Reticulum-associated, interferon-inducible), wild type, from pcDNA3.1-viperin (from UniProt Q8CBB9) S75A	57
viperin (Virus Inhibitory Protein, Endoplasmic Reticulum-associated, interferon-inducible), wild type, from pcDNA3.1-viperin (from UniProt Q8CBB9) T81A	240
viperin (Virus Inhibitory Protein, Endoplasmic Reticulum-associated, interferon-inducible), wild type, from pcDNA3.1-viperin (from UniProt Q8CBB9) T94A	30
viperin (Virus Inhibitory Protein, Endoplasmic Reticulum-associated, interferon-inducible), wild type, from pcDNA3.1-viperin (from UniProt Q8CBB9) T97A	45
viperin (Virus Inhibitory Protein, Endoplasmic Reticulum-associated, interferon-inducible), wild type, from pcDNA3.1-viperin (from UniProt Q8CBB9) Y86A	120
